Data as given in patent publication US10323078B2, “Isolated peptides and fragments thereof from fibrinogen for use as drugs, particularly in skin inflammatory diseases” (Universite Paris Descartes, priority 2015, dated 2019).

Key:
[1] = tested on: P. acnes 6919 strain; test: Adhesion assay, biotinylated P. acnes binding to HaCaT keratinocytes; format: cell-based, Propionibacterium acnes; conditions: P. acnes 6919 pre-treated with whole fibrinogen 0.01 to 0.5 mM, 1 h at 37° C.
Method: FIG. 12: Dose-dependent inhibition of P. acnes binding to keratinocytes. Biotinylated P. acnes 6919 strain at concentrations adjusted to 0.1 of absorbance at 600 nm was pre-treated with whole human (dark gray bar) and bovine (light gray bar) fibrinogen at the concentrations ranging from 0.01 to 0.5 mM and incubated 1 h at 37° C. with the human HaCaT keratinocyte cell line. After removal of unbound bacteria, adhesion activity was detected at 410 nm. Data are means±S.D. of three separate experiments. Statistical significance is indicated by * (P<0.05), ** (P<0.01), *** (P<0.001), and **** (P<0.0001), respectively.
The bacterial suspension was adjusted at 600 nm to the desired concentration, pretreated with peptides Fg1 and Fg2 at the final concentration ranging from 0.87 to 7 μM for 1 h at 37° C. and deposited on the previously saturated cells with a solution of PBS SVF 2% for 2 h. After incubation for 1 h at 37° C., unbound bacteria are removed by 3 washes with PBS and fixed bacteria are detected by a streptavidin-peroxidase solution of 0.5 μg/ml for 30 min.
Whole P. acnes bacteria are labelled by biotinylation, pre-treated or not with the peptides and contacted with the various cell lines. After removal of the unfixed bacteria, the adhesion activity was measured spectrophotometrically by using the streptavidin-peroxidase conjugate and a chromogenic substrate. […]

[2] = tested on: HaCaT cells; test: H2O2 production by P. acnes-stimulated HaCaT (spectrofluorimetry, H2-DCFDA); format: cell-based, human; conditions: bacteria first pretreated, 0.87 to 7 μM
Method: (§1) For experiences of stimulation with P. acnes, cells were incubated with the P. acnes suspension adjusted at the appropriate concentration, pre-treated for 1 h at 37° C. or not with fibrinogen recombinant peptides Fg1 and Fg2 at the concentrations 0.87, 1.75, 3.5 or 7 μM for the desired period of time at 37° C. in 5% CO2.
(§2) All cells lines (5·10^4 to 10^5 cells/well) were seeded in 96-well plates (Corning Costar, Brumath, France) and treated as previously described. After stimulation, cells were washed three times in PBS and incubated with 100 μl per wells of 5 μM DHE (for determination of O2^●−) or 5 μM H2-DCFDA (for determination of H2O2) for 30 min as described previously and fluorescence intensity was recorded every hour over a period of 5 h. Fluorescence excitation/emission maxima were for DHE: 480/610 nm and for H2-DCFDA: 507/525 nm. At the end of the experiment, the number of adherent cells was evaluated by the crystal violet assay as described below. O2^●−, and H2O2 were assayed by spectrofluorimetry on a Fusion spectrofluorimeter (PackardBell, Paris, France). Levels of ROS were calculated in each sample as follows: reactive oxygen species rate (arbitrary units/min/10^6 cells)=(fluorescence intensity [arbitrary units] at T5h—fluorescence intensity [arbitrary units] at To/300 minutes/number of adherent cells as measured by the crystal violet assay, and were expressed as arbitrary unit (A.U.).
(§3) To assess the efficacy of Fg1 recombinant peptide, the production of O2^∘− and H2O2 by HaCaT cells NHDK, THP-1, MRC5 and HDF stimulated by pretreated P. acnes strains 6919, RON and PIE was measured. The amount of ROS produced was compared to that produced by the stimulated cells with untreated bacteria. Production baseline was obtained by measuring ROS on unstimulated cells. The production of IL-1ß, IL-8, IL-12 and TNF-α was also measured in all conditions cited above. The measurement of the production of ROS is performed by spectrofluorimetry in the presence of specific fluorochromes directly on the monolayer cell. Measurement of cytokine production was performed in parallel on the cell culture supernatant.
Two sets of experiments were implemented: 1) The cells were stimulated (18 h at 37° C.) by P. acnes strains previously pretreated with Fg1 and Fg2 peptides at the final concentrations ranging from 0.87 to 7 μM for 1 h at 37° C.; and 2) The cells were pretreated first with Fg1 and Fg2 peptides at the final concentrations ranging from 0.87 to 7 μM for 24 h at 37° C. and stimulated (18 h at 37° C.) by P. acnes strains.
To assess the efficacy of the small Fg1-related peptide, the production of H2O2 by several cell lines (HaCaT, NHDK, THP-1, MRC5 and HDF) stimulated by three P. acnes strains 6919, RON and PIE was measured, in presence or not with the small peptides. The amount of H2O2 produced is compared to that produced by the stimulated cells with untreated bacteria. Production baseline is obtained by measuring H2O2 on unstimulated cells. The measurement of the production of H2O2 is performed by spectrofluorimetry in the presence of specific fluorochromes directly on the monolayer cell.
Two sets of experiments have been implemented: • I) The cells are stimulated (18 h at 37° C.) by P. acnes strains previously pretreated with Fg1.1, Fg1.2, Fg1.3, Fg1.4, and Fg1.5 small peptides at the final concentrations ranging from 2.5 to 20 μM for 1 h at 37° C.; • II) The cells are pretreated first with the five small peptides at the final concentrations ranging from 2.5 to 20 μM for 24 h at 37° C. and stimulated (18 h at 37° C.) by P. acnes strains.

[3] = tested on: MRC5 cells; test: O2°− production by P. acnes-stimulated MRC5; format: cell-based, human; conditions: bacteria first pretreated, 0.87 to 7 μM
Method: as §1, §2
as §3, with “Measurement of cytokine production was performed in parallel on the cell culture supernatant.” left out

[4] = tested on: ThP1 cells; test: IL-12 production by P. acnes-stimulated ThP1 (ELISA); format: cell-based, human; conditions: P. acnes 6919, set I, bacteria first pretreated, 0.87 to 7 μM
Method: as §1
Human IL-1ß, IL-8, IL-12, hBD-2, and TNF-α protein concentration was measured in the supernatants of stimulated cells using various ELISA Set kits (Ready-Set-Go kit from eBioscience for acne experiments, and for psoriasis experiments the Duo set IL-8 kit from R&D Systems and the BD-2 Human Development (hBD-2) from Peprotech) according to the manufacturer's instructions. We used serial dilutions of recombinant human IL-1ß, IL-8, IL-12 and TNF-α for standard curve. The optical density was determined at 450 nm at a wavelength correction of 540 nm.
as §3, with “The measurement of the production of ROS is performed by spectrofluorimetry in the presence of specific fluorochromes directly on the monolayer cell. Measurement of cytokine production was performed in parallel on the cell culture supernatant.” left out

Molecule	Inhibition of adhesion of P. acnes to keratinocytes [1]	Inhibition of Hydrogen peroxide (H2O2) production ([2]; P. acnes 6919, set I)	Inhibition of Hydrogen peroxide (H2O2) production ([2]; P. acnes PIE, set I)	Inhibition of Hydrogen peroxide (H2O2) production ([2]; P. acnes RON, set I)	Inhibition of Superoxide anion (O2°−) production ([3]; P. acnes 6919, set I)	Inhibition of Superoxide anion (O2°−) production ([3]; P. acnes PIE, set I)	Inhibition of Superoxide anion (O2°−) production ([3]; P. acnes RON, set I)	Inhibition of Interleukine 12 (IL-12) production [4]
human fibrinogen: purified commercial human fibrinogen (Sigma), glycoprotein hexamer of Aα, Bß and γ chains	able to inhibit the adhesion							
MKRMVSWSFHKLKTMKHLLLLLLCVFLVKSQGVNDNEEGFFSARGHRPLDKKREEAPSLRPAPPPISGGGYRARPAKAAATQKKVERKAPDAGGCLHADPDLGVLC (protein, GST fusion; fragment Fg1, fragment of Bß chain of human fibrinogen having 106 amino acids; recombinant GST-fused peptide expressed in E. coli) MKRMVSWSFHKLKTMKHLLLLLLCVFLVKSQGVNDNEEGFFSARGHRPLDKKREEAPSLRPAPPPISGGGRARPAKAAATQKKVERKAPDAGGCLHADPDLGVLCMKRMVSWSFHKLKTMKHLLLLLLCVFLVKSQGVNDNEEGFFSARGHRPLDKKREEAPSLRPAPPPISGGGYRARPAKAAATQKKVERKAPDAGGCLHADPDLGVLC		pos	pos	pos	pos	pos	pos	pos
